{"source": "paper PMC8517087", "about": "“Analysis of M4 Transmembrane Segments in NMDA Receptor Function: A Negative Allosteric Modulatory Site at the GluN1 M4 is Determining the Efficiency of Neurosteroid Modulation” (Frontiers in Pharmacology, 2021)", "key": {"[1]": {"target": "GluN1/GluN2A^ΔM4 receptor (rat | mouse) (UniProt P35439)"}, "[2]": {"target": "GluN1^ΔM4/GluN2A^F637A receptor (rat | mouse) (UniProt P35439)"}, "[3]": {"target": "GluN1^ΔM4/GluN2A receptor (M4-truncated core receptor) (rat | mouse) (UniProt P35439)"}}}
{"substance": "M4^N1, isolated GluN1 M4 fragment (GluN 1^802–925) (from UniProt P35439 802-925) (domain or fragment)", "values": [{"measurement": "rescue of agonist-induced current: Imax by TEVC in oocytes co-expressing M4^N1 with GluN1/GluN2A^ΔM4", "setting": "[1]", "result": 0.016, "unit": "µA"}, {"measurement": "rescued Imax current (TEVC) of GluN1^ΔM4/GluN2A^F637A co-expressed with M4^N1, normalised to the unmutated receptor", "setting": "[2]", "result": 50, "unit": "% decrease"}]}
{"substance": "M4^N2A, isolated GluN2A M4 fragment (GluN2A^804–1464) (from UniProt P35436 804-1464) (domain or fragment)", "values": [{"measurement": "rescue of agonist-induced current: Imax by TEVC in oocytes co-expressing M4^N2A with GluN1/GluN2A^ΔM4", "setting": "[1]", "result": 0.24, "unit": "µA"}]}
{"substance": "M4^N1-F817A (from UniProt P35439 802-925) (domain or fragment)", "values": [{"measurement": "rescue of agonist-induced current (TEVC) in oocytes co-expressing M4^N1-F817A with GluN1^ΔM4/GluN2A, compared with wt M4^N1", "setting": "[3]", "result": 90, "unit": "% decrease"}]}
